Measurements: publication PMC10783504, “Structural analysis of PLD3 reveals insights into the mechanism of lysosomal 5′ exonuclease-mediated nucleic acid degradation” (Nucleic Acids Research, 2023)

Assays:
[1] = target: the molecule itself; experiment: AUC; sedimentation velocity, 40000 rpm, 20°C, 8 or 16 μM hPLD3, absorbance at 280 or 290 nm
[2] = target: the molecule itself; experiment: SEC; HiLoad 16/600 Superdex 200 pg column, HEPES buffer pH 7.5, calibrated with LMW and HMW protein standards
hPLD3 luminal domain [3] = target: T1, hPLD3 luminal domain (Homo sapiens, UniProt Q8IV08 61-490); experiment: ITC; N = 1.0; dH -12 kcal/mol; no phosphorothioate, cleavable substrate; ITC: 20 mM HEPES pH 7.5, 150 mM NaCl, 10 C; 380 uM ssDNA in syringe, 10 uM hPLD3 in cell. Crystals: 15% PEG 4000, 0.02 M NaI, 0.9 M ammonium sulfate, 15% glycerol; conditions: protein: recombinant; tags: C-terminal 6xHis; chain copies: 2; single strand
T1 sequence: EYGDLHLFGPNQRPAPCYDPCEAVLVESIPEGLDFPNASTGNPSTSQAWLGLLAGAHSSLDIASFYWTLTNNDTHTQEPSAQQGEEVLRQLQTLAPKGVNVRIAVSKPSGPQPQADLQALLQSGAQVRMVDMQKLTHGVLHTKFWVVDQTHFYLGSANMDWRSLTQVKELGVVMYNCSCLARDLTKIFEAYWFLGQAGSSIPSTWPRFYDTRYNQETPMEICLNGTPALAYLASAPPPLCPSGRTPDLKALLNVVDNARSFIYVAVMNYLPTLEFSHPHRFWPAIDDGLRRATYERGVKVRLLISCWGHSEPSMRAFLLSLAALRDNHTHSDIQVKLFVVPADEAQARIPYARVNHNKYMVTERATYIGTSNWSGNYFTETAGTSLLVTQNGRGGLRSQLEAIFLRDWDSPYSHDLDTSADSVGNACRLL

hPLD3 luminal domain [4] = target: T1, hPLD3 luminal domain; experiment: ITC; ITC: 20 mM HEPES pH 7.5, 150 mM NaCl, 10 C; 380 uM ssDNA in syringe, 10 uM hPLD3 in cell. Crystals: 15% PEG 4000, 0.02 M NaI, 0.9 M ammonium sulfate, 15% glycerol; conditions: protein: recombinant; tags: C-terminal 6xHis; chain copies: 2; single strand
hPLD3 luminal domain [5] = target: T1, hPLD3 luminal domain; experiment: ITC; N = 0.9; dH 30 kcal/mol; ITC: 20 mM HEPES pH 7.5, 150 mM NaCl, 10 C; 380 uM ssDNA in syringe, 10 uM hPLD3 in cell. Crystals: 15% PEG 4000, 0.02 M NaI, 0.9 M ammonium sulfate, 15% glycerol; conditions: protein: recombinant; tags: C-terminal 6xHis; chain copies: 2; single strand

B1: luminal domain (residues 61–490) of human PLD3 (domain or fragment, UniProt Q8IV08 61-490, looked up)
chain: T1 sequence
modifications: N-glycosylated (Man5GlcNAc2, high-mannose type) at Asn97, Asn132, Asn236, Asn284 and Asn387, at least partially; Cys300 oxidized to cysteine sulfonic acid (OCS)
notes: human PLD3 (phospholipase D3), luminal domain, residues 61-490, starting directly after the transmembrane segment; In the crystals residues 72–98 and 101–490 are seen, 61–71 and 99–100 are not visible; also called hPLD3; hPLD3_(61-490); source: HEK293S GnTI- stably transfected monoclonal cell line, secreted into culture supernatant, purified (NiNTA, SEC)
With B1 the “stoichiometry N” value [1] was 4 and the “stoichiometry N” value [2] was 2.

B2: TTCATG (ssDNA)
DNA: TTCATG
In the case of B2, the Kd (hPLD3 luminal domain [3]) is reported as 20 ± 2 µM.

B3: T*T*C*A*T*G* (ssDNA)
DNA: TTCATG
modifications: phosphorothioate at all linkages (mixed Rp/Sp); printed with * also after the last G
B3: no binding (hPLD3 luminal domain [4]).

B4: T*TCATG (ssDNA)
DNA: TTCATG
modifications: phosphorothioate between nt 1 and 2 (mixed Rp/Sp)
B4 was tested, and the Kd (hPLD3 luminal domain [5]) was 28 ± 4 µM.
